Laboratory results taken from the supplement of paper PMC10567573.

B1: CDS2 (parent)
chain: IHSIALSTFASLIGPFGGFFASGF

Variants of: B1
Experiment: protein stability index of a GFP-peptide fusion (GPS, HEK-293T) (PSI 1-6); higher = more stable
Conditions: c terminus: a fixed tail appended
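Also: lentivirally expressed fusions sorted by FACS into six bins by GFP to DsRed ratio, PSI derived from sequencing read proportions per bin multiplied by bin number.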

Variant	protein stability index
IHSIALSTFASLIGLFGGFFASGF [P15L]	4.3
IHSIALMTFASLIGPFGGFFASGF [S7M]	3.09
IHSIALSTFASLIGPFGGEFASGF [F19E]	3.01
IHSIALSTFASLIGEFGGFFASGF [P15E]	3.88
IHSIALSTFASLIGPFGGKFASGF [F19K]	3.44
IHSIALSTFASLIGPFGGFKASGF [F20K]	2.68
IHSIALSQFASLIGPFGGFFASGF [T8Q]	1.86
IHSIAQSTFASLIGPFGGFFASGF [L6Q]	2.28
IHSIADSTFASLIGPFGGFFASGF [L6D]	3.13
AHSIALSTFASLIGPFGGFFASGF [I1A]	3.5
IHSITLSTFASLIGPFGGFFASGF [A5T]	2.36
IHSIHLSTFASLIGPFGGFFASGF [A5H]	2.81
IHSIALSTFASLIGPFGGFFASGY [F24Y]	2.52
IHSIALSTFASSIGPFGGFFASGF [L12S]	3.23
IHSTALSTFASLIGPFGGFFASGF [I4T]	3.82
IHSIALSTFASLIYPFGGFFASGF [G14Y]	2.64
IHSIALSTFASLIIPFGGFFASGF [G14I]	2.82
IHSIALSTFASLIGPFGGFAASGF [F20A]	1.97
IHSIALGTFASLIGPFGGFFASGF [S7G]	3.09
IHSIALSTFASLIGPFGGFTASGF [F20T]	3.03
IHSIALSTFASLAGPFGGFFASGF [I13A]	2.25
IHSIALSTFASGIGPFGGFFASGF [L12G]	3.36
IHSIALSTFACLIGPFGGFFASGF [S11C]	2.7
IHSIALSTFASLIGPFPGFFASGF [G17P]	2.78

Variant	protein stability index
IHSIALSTFASLIGPFGGPFASGF [F19P]	2.01
IHSIALSTFASLIGPFGKFFASGF [G18K]	2.86
IHSIALSTFASLIGPQGGFFASGF [F16Q]	3.71
IHSIMLSTFASLIGPFGGFFASGF [A5M]	2.14
IHSIALSTFASLQGPFGGFFASGF [I13Q]	2.45
IHSIALSTFASIIGPFGGFFASGF [L12I]	2.76
IHSIALSTFASLIGPFQGFFASGF [G17Q]	2.83
IHSIALSTFASLIGIFGGFFASGF [P15I]	4.59
IHSIAKSTFASLIGPFGGFFASGF [L6K]	3.48
IHSIALSTFASLIGPFGYFFASGF [G18Y]	3.62
IHSIALSTFASLIGPFGWFFASGF [G18W]	2.32
IHSIALSTFASLIGPFGGFSASGF [F20S]	2.52
IHSIALSTFASLIGPFGGFFQSGF [A21Q]	3.25
IHSIALSTFASLIGPFGGFFNSGF [A21N]	2.8
IHSIALSTFASLIGPFGTFFASGF [G18T]	3.73
IHSIALSTFASEIGPFGGFFASGF [L12E]	2.51
IHSIALTTFASLIGPFGGFFASGF [S7T]	2.71
YHSIALSTFASLIGPFGGFFASGF [I1Y]	3.05
IHSIALSTFASLIGPFGMFFASGF [G18M]	3.05
IHSIALSTFASLIGPFGGFFAKGF [S22K]	1.71
IHSIALSTFSSLIGPFGGFFASGF [A10S]	2.6
IHSIALSTFASLIGGFGGFFASGF [P15G]	3.77
IWSIALSTFASLIGPFGGFFASGF [H2W]	2
IHSIALSTFASLIGPVGGFFASGF [F16V]	2.96

Variant	protein stability index
IHSIALSTFASLIGPFGGFFATGF [S22T]	2.96
IHSIALPTFASLIGPFGGFFASGF [S7P]	2.88
IISIALSTFASLIGPFGGFFASGF [H2I]	2.41
IHSIALSTFASLIGPFGGFFAGGF [S22G]	3.59
IHSIALSTFASLIGPFGGFFESGF [A21E]	2.24
IHSIALSTYASLIGPFGGFFASGF [F9Y]	1.62
NHSIALSTFASLIGPFGGFFASGF [I1N]	2.63
IHSIALSTFAELIGPFGGFFASGF [S11E]	3.35
IHSIALSTFASLIGPFGVFFASGF [G18V]	3.83
IHSIALSTFASLIGPFGGFVASGF [F20V]	3.06
IHSIALSTFASLIGPFGGVFASGF [F19V]	2.86
IHSIALSTFASHIGPFGGFFASGF [L12H]	3.22
IHSIALSTFASLIGPFGGFFAPGF [S22P]	3.67
IHSIALSTFAYLIGPFGGFFASGF [S11Y]	4.15
IHIIALSTFASLIGPFGGFFASGF [S3I]	3.44
IHYIALSTFASLIGPFGGFFASGF [S3Y]	2.06
IHSIALSTFASLIGPFGGFFASGQ [F24Q]	2.45
IESIALSTFASLIGPFGGFFASGF [H2E]	1.8
IHSIALSTFHSLIGPFGGFFASGF [A10H]	2.85
IHSSALSTFASLIGPFGGFFASGF [I4S]	3.51
IHSIALSTFASLIGPFGGFFAVGF [S22V]	2.54
IHSIGLSTFASLIGPFGGFFASGF [A5G]	2.93
IHSIALSPFASLIGPFGGFFASGF [T8P]	3.52
IHSIALSAFASLIGPFGGFFASGF [T8A]	3.48

Variant	protein stability index
IHSIALSTFASLIGPFGGFIASGF [F20I]	2.13
IHSIALSIFASLIGPFGGFFASGF [T8I]	1.82
IHSIALSTFVSLIGPFGGFFASGF [A10V]	3.29
IHSIALSTFASLIGPFGGFFANGF [S22N]	2.57
IHSIALSTFASLIGDFGGFFASGF [P15D]	3.92
IHSIALSTEASLIGPFGGFFASGF [F9E]	1.92
IHSIALSTFASLIGPFEGFFASGF [G17E]	3.13
IHSIALSTFASLIMPFGGFFASGF [G14M]	2.48
IHSIALSTFASLIGPFGGFFASTF [G23T]	2.53
IHSIALSTFAFLIGPFGGFFASGF [S11F]	3.22
IHSIALSTFASLIGPIGGFFASGF [F16I]	4.33
IHSIALSTFASCIGPFGGFFASGF [L12C]	2.74
IHSIALSTFASLIGPFGGFFASGL [F24L]	3.68
IHSIALSTLASLIGPFGGFFASGF [F9L]	3.88
IHSIALSTFASLIGPFGGSFASGF [F19S]	2.78
IHSIALSTFASLSGPFGGFFASGF [I13S]	2.8
IHSIALSTFWSLIGPFGGFFASGF [A10W]	3.06
IHSIALSTFASLIGPFGGFRASGF [F20R]	2.86
IHSIALSTFASLIGPFGGFFASGI [F24I]	2.91
IHSIALSTFAQLIGPFGGFFASGF [S11Q]	3.26
IHSIALSTFARLIGPFGGFFASGF [S11R]	2.81
IHSIALSTFASLIGPWGGFFASGF [F16W]	2.49
IHSIALSTFASRIGPFGGFFASGF [L12R]	1.6
IHSIALSTFASLIGPFGDFFASGF [G18D]	4.39

Variant	protein stability index
IHSIACSTFASLIGPFGGFFASGF [L6C]	2.06
IHSIALSTFASWIGPFGGFFASGF [L12W]	3.43
IHSIALSTFASLIGPFGGFLASGF [F20L]	2.98
IHSIALSTFASLIGHFGGFFASGF [P15H]	2.17
IHSIALSTFASLIGPAGGFFASGF [F16A]	3.6
IHSIALCTFASLIGPFGGFFASGF [S7C]	1.83
SHSIALSTFASLIGPFGGFFASGF [I1S]	2.57
IHSIALSTFASLIGPFHGFFASGF [G17H]	3.56
IHSIALSMFASLIGPFGGFFASGF [T8M]	2.49
IHSIALSTFASLIGPFGHFFASGF [G18H]	2.38
IHSIAGSTFASLIGPFGGFFASGF [L6G]	2.54
IHSIALSTFAMLIGPFGGFFASGF [S11M]	3.71
IHSIALQTFASLIGPFGGFFASGF [S7Q]	2.64
LHSIALSTFASLIGPFGGFFASGF [I1L]	2.63
IHSIALSTFASLPGPFGGFFASGF [I13P]	2.92
IHSIALSTFASLLGPFGGFFASGF [I13L]	2.64
IHSIALSTFASLIGPFVGFFASGF [G17V]	2.5
IHSIALSTFASLIGPFGGFFASGA [F24A]	2.18
IHSIALSTFASLIGPFGGFFASGS [F24S]	2.63
IHSIALSTFASLIGPFGGFFSSGF [A21S]	2.54
IHSIALSTFASAIGPFGGFFASGF [L12A]	2.82
IHSIALVTFASLIGPFGGFFASGF [S7V]	3
IHPIALSTFASLIGPFGGFFASGF [S3P]	2.89
WHSIALSTFASLIGPFGGFFASGF [I1W]	3.6

Variant	protein stability index
IHSIALSTFKSLIGPFGGFFASGF [A10K]	1.79
IHSIALSTFASLEGPFGGFFASGF [I13E]	2.6
IHGIALSTFASLIGPFGGFFASGF [S3G]	2.49
IHSIALSTFASLIGPFGGFFAWGF [S22W]	2.44
VHSIALSTFASLIGPFGGFFASGF [I1V]	2.61
IHSEALSTFASLIGPFGGFFASGF [I4E]	2.14
IHSIALSTFASLTGPFGGFFASGF [I13T]	2.77
IHSIALSTFASLIGPFGGFFALGF [S22L]	2.7
IHSIALSTFASLIGPFGGFFASGV [F24V]	3.32
IHSIALSTFMSLIGPFGGFFASGF [A10M]	3.11
IHSIALSTFASLIGPFGGFFARGF [S22R]	3.24
IHSIALSTWASLIGPFGGFFASGF [F9W]	2.81
IHSIALSTFASLIGPFGGFFASNF [G23N]	3.46
IHSIALSTFASLIGPFGGFFFSGF [A21F]	2.83
IHSIALSTFGSLIGPFGGFFASGF [A10G]	3.32
IHSIALSTFASLIGPFSGFFASGF [G17S]	4.37
IHSIALWTFASLIGPFGGFFASGF [S7W]	3.82
IHSIALHTFASLIGPFGGFFASGF [S7H]	3.45
IHSIFLSTFASLIGPFGGFFASGF [A5F]	3.17
IHSIALSTFASLIGPFCGFFASGF [G17C]	3.58
IQSIALSTFASLIGPFGGFFASGF [H2Q]	2.43
IHVIALSTFASLIGPFGGFFASGF [S3V]	3.02
IHSIAVSTFASLIGPFGGFFASGF [L6V]	3.03
IHSIALSTFAHLIGPFGGFFASGF [S11H]	2.75

Variant	protein stability index
IHSIAESTFASLIGPFGGFFASGF [L6E]	4.38
PHSIALSTFASLIGPFGGFFASGF [I1P]	3.96
IHSIALSTFASLIGPFGGFFMSGF [A21M]	2.69
IHSIALSTFAILIGPFGGFFASGF [S11I]	3.73
IHSIALSTFASLIGPFGGFMASGF [F20M]	2.88
IHSIALSTFASLIGPFGGFFAMGF [S22M]	3.08
IHSIALSTFASLIGPFGGYFASGF [F19Y]	4.14
IHSIALSTFASLIGPFGGFFLSGF [A21L]	2.75
IHSIALSTFASLIGPFGGFFKSGF [A21K]	2.22
IHSIALSTFASLIGPFGGDFASGF [F19D]	3.49
IHSIALSTFTSLIGPFGGFFASGF [A10T]	4.58
IHLIALSTFASLIGPFGGFFASGF [S3L]	4.15
IHSIALSTFASLIGPFGGFFACGF [S22C]	2.86
IHSIELSTFASLIGPFGGFFASGF [A5E]	3.98
IHSIALSTFASLIGPYGGFFASGF [F16Y]	2.37
IHSIALSTFASLIGPFGGGFASGF [F19G]	3.81
IHSIALSTFASLIGPFGGFFASGD [F24D]	3.08
IHSIALITFASLIGPFGGFFASGF [S7I]	2.94
IHSIALSTFASLIGPFFGFFASGF [G17F]	2.74
IHSIALRTFASLIGPFGGFFASGF [S7R]	3.4
IHSIALSTFASLIGPKGGFFASGF [F16K]	3.11
IHSIALSTFASLIGPFGGHFASGF [F19H]	2.47
IHSIALATFASLIGPFGGFFASGF [S7A]	2.22
IHSIALSTFASLIGPFGGIFASGF [F19I]	2.97

Variant	protein stability index
IHSIALSTFASLIGPPGGFFASGF [F16P]	2.02
IHSIALSVFASLIGPFGGFFASGF [T8V]	2.86
KHSIALSTFASLIGPFGGFFASGF [I1K]	2.65
IHSHALSTFASLIGPFGGFFASGF [I4H]	2.91
IHSIALSTFASLIGPFGGLFASGF [F19L]	3.19
EHSIALSTFASLIGPFGGFFASGF [I1E]	4.34
IHSIALSTFASLIGPFGGWFASGF [F19W]	3.48
IHCIALSTFASLIGPFGGFFASGF [S3C]	4.47
IHQIALSTFASLIGPFGGFFASGF [S3Q]	2.4
GHSIALSTFASLIGPFGGFFASGF [I1G]	2.84
IHSIALSTGASLIGPFGGFFASGF [F9G]	2.44
IHSIALSTNASLIGPFGGFFASGF [F9N]	2.11
IHSIALSTFASLIGRFGGFFASGF [P15R]	1.88
IASIALSTFASLIGPFGGFFASGF [H2A]	2.61
IHSIALSTHASLIGPFGGFFASGF [F9H]	1.51
IHSIVLSTFASLIGPFGGFFASGF [A5V]	1.84
IHSIALSTFASLIWPFGGFFASGF [G14W]	1.74
IHSIALSTFASLIGPFGGMFASGF [F19M]	4.02
IHSIALSTFASLIGPFGGFFCSGF [A21C]	3.33
IHSIALSTRASLIGPFGGFFASGF [F9R]	3.28
